According to patent US20080187577A1 (University of Texas, published 2008):

Target: T1, CCK2R on AR42J cells (UniProt P30553 1-452, limits assumed)
T1 construct: whole, on cells
T1 sequence (looked up): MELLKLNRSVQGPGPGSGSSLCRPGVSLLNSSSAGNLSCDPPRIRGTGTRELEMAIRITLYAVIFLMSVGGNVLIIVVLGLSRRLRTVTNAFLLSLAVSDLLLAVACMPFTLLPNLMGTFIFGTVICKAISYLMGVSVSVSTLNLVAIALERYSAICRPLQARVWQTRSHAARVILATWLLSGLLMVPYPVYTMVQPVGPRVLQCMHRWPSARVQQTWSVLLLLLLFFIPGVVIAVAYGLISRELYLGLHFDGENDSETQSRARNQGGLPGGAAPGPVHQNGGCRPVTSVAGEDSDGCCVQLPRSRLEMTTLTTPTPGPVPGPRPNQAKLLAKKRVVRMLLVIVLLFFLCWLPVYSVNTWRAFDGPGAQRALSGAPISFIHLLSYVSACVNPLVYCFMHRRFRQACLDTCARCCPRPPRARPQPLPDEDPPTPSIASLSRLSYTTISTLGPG
Assay: displacement of ^125I-BH-CCK8 from AR42J cells
Experimental: For these experiments, AR42J cells were expanded in vitro in 175 mm flasks and grown to subconfluence in the growth medium containing 10% FCS. All binding assays were performed 36-48 h after seeding the cells in culture medium containing 10% FCS and 2% glutamine. Before the start of the binding assays, the cells in culture were washed with Hanks Balanced salt solution (HBSS) (GIBCO) containing 0.1% BSA and 25 mM HEPES (Sigma) and scraped with a rubber policeman into conical tissue culture polystyrene tubes. Cells were centrifuged at 500 g for 5 min and resuspended in HBSS at a concentration of 2×10⁶ cells/ml. Aliquots (˜1.0 ml) of suspended cells in polystyrene tubes were used in the binding assays. […] Binding assays were performed at 37° C. for 30-60 min at pH 6.5 (optimal for binding).
Non-specific binding was determined in the presence of 1000× excess of the non-labeled homologous peptide. At the end of the incubation, the cells were pelleted and washed twice with 1 ml of fresh ice-cold HBSS plus 0.1% BSA. Cell pellets were counted for ¹²⁵I in a gamma counter with ˜70% efficiency for ¹²⁵I.

B1: full-length recombinant human PG1-80 (rhPG) (ligand)
chain: SWKPRSQQPDAPLGTGANRDLELPWLEQQGPASHHRRQLGPQGPPHLVADPSKKQGPWLEEEEEAYGWMDFGRRSAEDEN
notes: Expressed in E. coli from pET32 as a thioredoxin fusion and purified; also called recombinant human progastrin; progastrin
B1: no binding.
